Target: T1, PD-1 molecule (refolded, purified and biotinylated PD-1 of Example 2) (UniProt Q15116 33-150, biotinylated with BirA enzyme (site not stated))
T1 construct: also called Programmed Death-1
Test: SPR (BIAcore T200), single-cycle kinetics; biotinylated PD-1 captured via streptavidin, PDL-1 variant in solution
Experimental: The anti-streptavidin antibody (GenScript) was added to the coupling buffer (10 mM sodium acetate buffer, pH 4.77). The antibody was then flowed through a CMS chip previously activated with EDC and NHS to immobilize the antibody on the chip surface. Finally, the unreacted activation surface was blocked with a solution of ethanolamine hydrochloride to complete the coupling process.
A low concentration of streptavidin is allowed to flow over the surface of the antibody-coated chip, then the biotinylated PD-1 is passed through the detection channel and the other channel is used as a reference channel. Then, 0.05 mM biotin was passed through the chip at a flow rate of 10 μL/min for 2 min to block the remaining binding sites of streptavidin. The single-cycle kinetic analysis method was used to measure its affinity. […] The binding time for each injection was 120 s, and it was disassociated for 600 s after the last injection. The chips were regenerated with 10 mMGly-HCl, pH 1.75 after each round of assays. Kinetic parameters were calculated using BIAcore Evaluation software.

T1 sequence (Q15116 33-150 limits assumed): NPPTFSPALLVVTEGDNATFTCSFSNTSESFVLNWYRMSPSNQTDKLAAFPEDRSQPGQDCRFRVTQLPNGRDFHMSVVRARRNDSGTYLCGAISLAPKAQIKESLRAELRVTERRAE

Binder | Kd [µM] | koff [s⁻¹] | kon [M⁻¹ s⁻¹]
high affinity PDL-1 molecule L3D9 (ligand) FTVTVPKDLYVVEYGSNMTIECKFPVEKQLDLAALNVFWFMEDKNIIQFVHGEEDLKVQHSSYRQRARLLKDQLSLGNAALQITDVKLQDAGVYTCLIGYEGADYKRITVKVNAPYNKINQRILVVDPVTSEHELTCQAEGYPKAEVIWTSSDHQVLSGKTTTTNSKREEKLFNVTSTLRINTTTNEIFYCTFRRLDPEENHTAELVIPEL | 3.39 | 0.0871 | 25700
high affinity PDL-1 molecule L3G10 (ligand) FTVTVPKDLYVVEYGSNMTIECKFPVEKQLDLAALTVAWYMEDKNIIQFVHGEEDLKVQHSSYRQRARLLKDQLSLGNAALQITDVKLQDAGVYTCLIGYDGADYKRITVKVNAPYNKINQRILVVDPVTSEHELTCQAEGYPKAEVIWTSSDHQVLSGKTTTTNSKREEKLFNVTSTLRINTTTNEIFYCTFRRLDPEENHTAELVIPEL | 11.8 | 0.263 | 22200
high affinity PDL-1 molecule L22C7 (ligand) FTVTVPKDLYVVEYGSNMTIECKFPVEKQLDLAALEVHWFMEDKNIISFVHGEEDLKVQHSSYRQRARLLKDQLSLGNAALQITDVKLQDAGVYRCMISYGGADYKRITVKVNAPYNKINQRILVVDPVTSEHELTCQAEGYPKAEVIWTSSDHQVLSGKTTTTNSKREEKLFNVTSTLRINTTTNEIFYCTFRRLDPEENHTAELVIPEL | 11.9 | 0.133 | 11200
high affinity PDL-1 molecule L22A5 (ligand) FTVTVPKDLYVVEYGSNMTIECKFPVEKQLDLAALQVHWFMEDKNIPSFVHGEEDLKVQHSSYRQRARLLKDQLSLGNAALQITDVKLQDAGVYRCMISYGGADYKRITVKVNAPYNKINQRILVVDPVTSEHELTCQAEGYPKAEVIWTSSDHQVLSGKTTTTNSKREEKLFNVTSTLRINTTTNEIFYCTFRRLDPEENHTAELVIPEL | 4.84 | 0.0559 | 11500
high affinity PDL-1 molecule L22D5 (ligand) FTVTVPKDLYVVEYGSNMTIECKFPVEKQLDLAALQVHWFMEDKNIFSFVHGEEDLKVQHSSYRQRARLLKDQLSLGNAALQITDVKLQDAGVYRCMISYGGADYKRITVKVNAPYNKINQRILVVDPVTSEHELTCQAEGYPKAEVIWTSSDHQVLSGKTTTTNSKREEKLFNVTSTLRINTTTNEIFYCTFRRLDPEENHTAELVIPEL | 6.48 | 0.268 | 41400

Binders with a lower Kd, results first:

Kd [µM] | koff [s⁻¹] | kon [M⁻¹ s⁻¹] | Binder
2.98 | 0.169 | 56600 | high affinity PDL-1 molecule L32G5 (ligand) FTVTVPKDLYVVEYGSNMTIECKFPVEKQLDLAALIVYWEMEDKNIIQFVHGEEDLKVQHSSYRQRARLLKDQLSLGNAALQITDVKLQDAGVYTCLIGYHGADYKRITVKVNAPYNKINQRILVVDPVTSEHELTCQAEGYPKAEVIWTSSDHQVLSGKTTTTNSKREEKLFNVTSTLRINTTTNEIFYCTFRRLDPEENHTAELVIPEL
0.123 | 0.0176 | 143000 | high affinity PDL-1 molecule L3C7b (ligand) FTVTVPKDLYVVEYGSNMTIECKFPVEKQLDLAALEVHWFMEDKNIFSFVHGEEDLKVQHSSYRQRARLLKDQLSLGNAALQITDVKLQDAGVYVCLIGYKGADYKRITVKVNAPYNKINQRILVVDPVTSEHELTCQAEGYPKAEVIWTSSDHQVLSGKTTTTNSKREEKLFNVTSTLRINTTTNEIFYCTFRRLDPEENHTAELVIPEL
0.106 | 0.0155 | 147000 | high affinity PDL-1 molecule L3C7c (ligand) WTVTVPKDLYVVEYGSNMTIECKFPVEKQLDLAALEVHWFMEDKNIFSFVHGEEDLKVQHSSYRQRARLLKDQLSLGNAALQITDVKLQDAGVYTCLIGYKGADYKRITVKVNAPYNKINQRILVVDPVTSEHELTCQAEGYPKAEVIWTSSDHQVLSGKTTTTNSKREEKLFNVTSTLRINTTTNEIFYCTFRRLDPEENHTAELVIPEL
0.0539 | 0.0059 | 109000 | high affinity PDL-1 molecule L3C7d (ligand) WTVTVPKDLYVVEYGSNMTIECKFPVEKQLDLAALEVHWFMEDKNIFSFVHGEEDLKVQHSSYRQRARLLKDQLSLGNAALQITDVKLQDAGVYTCLIGYKGGADYKRITVKVNAPYNKINQRILVVDPVTSEHELTCQAEGYPKAEVIWTSSDHQVLSGKTTTTNSKREEKLFNVTSTLRINTTTNEIFYCTFRRLDPEENHTAELVIPEL

Source: US20180291081A1 (GUANGZHOU INSTITUTES OF BIOMEDICINE AND HEALTH CHINESE …, published 2018)
